Molecular target: T1, citrate synthase (CS) (E. coli (endogenous in AVB101), UniProt P0ABH7 1-427)
T1 sequence (looked up): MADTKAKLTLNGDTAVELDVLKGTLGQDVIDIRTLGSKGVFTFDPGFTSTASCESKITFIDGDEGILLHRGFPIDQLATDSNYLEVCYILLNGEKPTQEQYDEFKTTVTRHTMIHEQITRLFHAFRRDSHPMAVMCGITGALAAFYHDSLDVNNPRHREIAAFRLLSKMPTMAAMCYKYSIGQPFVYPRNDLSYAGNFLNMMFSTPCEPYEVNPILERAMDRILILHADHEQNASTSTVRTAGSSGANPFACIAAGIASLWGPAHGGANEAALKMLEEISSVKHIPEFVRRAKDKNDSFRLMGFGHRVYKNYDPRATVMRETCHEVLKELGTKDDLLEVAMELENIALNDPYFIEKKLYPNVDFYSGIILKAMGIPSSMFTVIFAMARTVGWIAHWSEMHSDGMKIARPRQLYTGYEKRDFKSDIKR
Test: cell-based or functional assay

enthalpy change of unfolding (ΔHm) of 2 μM CS, two-state fit of the CD thermal denaturation, with 2, 5 and 13 μM purified WT ERD14 (396 falling to 316 kJ/mol; CS alone 475 kJ/mol): 94.6 kcal/mol
B1: Early Response to Dehydration 14 (ERD14) of A. thaliana, wild type, biotinylated in the cell (natural protein, UniProt P42763 1-185, looked up)
chain: MAEEIKNVPEQEVPKVATEESSAEVTDRGLFDFLGKKKDETKPEETPIASEFEQKVHISEPEPEVKHESLLEKLHRSDSSSSSSSEEEGSDGEKRKKKKEKKKPTTEVEVKEEEKKGFMEKLKEKLPGHKKPEDGSAVAAAPVVVPPPVEEAHPVEKKGILEKIKEKLPGYHPKTTVEEEKKDKE
modifications: biotin (in-cell biotinylation)
melting temperature (Tm) of 2 μM CS, thermal denaturation followed by CD at 220 nm, with 2, 5 and 13 μM purified WT ERD14 (50.5 to 55.3 °C; CS alone 49.5 °C): 55.3 °C
